Reference: paper PMC9482650, “Quantitative fragmentomics allow affinity mapping of interactomes” (Nature Communications, 2022)

T1: ARHGEF11, O15085
T1 sequence (O15085 42-136, limits assumed, looked up): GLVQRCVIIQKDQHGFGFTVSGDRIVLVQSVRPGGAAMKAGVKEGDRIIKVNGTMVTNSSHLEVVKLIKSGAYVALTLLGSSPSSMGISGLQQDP

T2: DLG3_2, Q92796
T2 sequence (Q92796 221-321, limits assumed, looked up): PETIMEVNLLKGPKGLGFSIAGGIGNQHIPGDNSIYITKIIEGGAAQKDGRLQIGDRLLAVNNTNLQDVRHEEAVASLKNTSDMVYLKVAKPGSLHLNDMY

T3: FRMPD1, Q5SYB0
T3 sequence (Q5SYB0 52-145, limits assumed, looked up): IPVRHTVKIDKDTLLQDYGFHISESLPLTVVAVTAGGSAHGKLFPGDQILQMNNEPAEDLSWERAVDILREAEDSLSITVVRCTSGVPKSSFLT

T4: LIN7A, O14910
T4 sequence (O14910 103-200, limits assumed, looked up): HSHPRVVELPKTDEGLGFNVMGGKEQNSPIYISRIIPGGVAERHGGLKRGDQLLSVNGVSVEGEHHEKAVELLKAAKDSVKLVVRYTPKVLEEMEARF

T5: MPDZ_12, O75970
T5 sequence (O75970 1857-1958, limits assumed, looked up): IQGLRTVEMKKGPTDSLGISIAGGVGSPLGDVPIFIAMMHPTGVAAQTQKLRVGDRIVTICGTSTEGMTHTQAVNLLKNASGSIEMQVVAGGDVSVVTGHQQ

T6: PCLO, Q9Y6V0
T6 sequence (Q9Y6V0 4491-4600, limits assumed, looked up): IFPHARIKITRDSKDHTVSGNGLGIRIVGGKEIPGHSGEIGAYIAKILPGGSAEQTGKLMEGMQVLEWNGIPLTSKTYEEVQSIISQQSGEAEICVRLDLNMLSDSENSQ

T7: PTPN13_1, Q12923
T7 sequence (Q12923 1088-1188, limits assumed, looked up): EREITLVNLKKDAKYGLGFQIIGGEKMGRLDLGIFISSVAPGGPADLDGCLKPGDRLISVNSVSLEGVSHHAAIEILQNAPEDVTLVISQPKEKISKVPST

T8: SHANK1, Q9Y566
T8 sequence (Q9Y566 658-767, limits assumed, looked up): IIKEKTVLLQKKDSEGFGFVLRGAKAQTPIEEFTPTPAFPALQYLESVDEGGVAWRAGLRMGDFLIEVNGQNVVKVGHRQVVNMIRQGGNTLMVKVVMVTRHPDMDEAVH

T9: TX1BP3, O14907
T9 sequence (O14907 10-122, limits assumed, looked up): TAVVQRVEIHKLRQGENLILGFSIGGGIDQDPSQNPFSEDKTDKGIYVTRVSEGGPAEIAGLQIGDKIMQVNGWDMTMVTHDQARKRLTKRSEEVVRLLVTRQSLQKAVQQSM

B1: ABCC6, O95255 (peptide)
chain: YRLAQESGLV

What follows are binders tested against T1, ARHGEF11, O15085 (assay: holdup assay). Conditions: plain residues with an end cap or a label only (N-terminal biotin on a linker: ado-ado).
Parameters: key: below the threshold = too weak to quantify, mostly under pKd 3.1 to 4
In the case of B1, the pKd is reported as “below the threshold”.

What follows are binders tested against DLG1_1, Q12959 (assay: holdup assay). Conditions: plain residues with an end cap or a label only (N-terminal biotin on a linker: ado-ado).
Parameters: key: below the threshold = too weak to quantify, mostly under pKd 3.1 to 4
For B1, the pKd was “below the threshold”.

What follows are binders tested against DLG2_3, Q15700 (assay: holdup assay). Conditions: plain residues with an end cap or a label only (N-terminal biotin on a linker: ado-ado).
Parameters: key: below the threshold = too weak to quantify, mostly under pKd 3.1 to 4
With B1 the pKd was “below the threshold”.

What follows are binders tested against T2, DLG3_2, Q92796 (assay: holdup assay). Conditions: plain residues with an end cap or a label only (N-terminal biotin on a linker: ado-ado).
Parameters: key: below the threshold = too weak to quantify, mostly under pKd 3.1 to 4
In the case of B1, the pKd is reported as “below the threshold”.

Each binder was assayed against DLG5_1, Q8TDM6 (assay: holdup assay). Conditions: plain residues with an end cap or a label only (N-terminal biotin on a linker: ado-ado).
Chain of DLG5_1, Q8TDM6 (Q8TDM6 617-713): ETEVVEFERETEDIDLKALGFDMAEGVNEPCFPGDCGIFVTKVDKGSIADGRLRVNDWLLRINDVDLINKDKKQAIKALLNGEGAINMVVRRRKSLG
Parameters: key: below the threshold = too weak to quantify, mostly under pKd 3.1 to 4
In the case of B1, the pKd is reported as “below the threshold”.

What follows are binders tested against T3, FRMPD1, Q5SYB0 (assay: holdup assay). Conditions: plain residues with an end cap or a label only (N-terminal biotin on a linker: ado-ado).
Parameters: key: below the threshold = too weak to quantify, mostly under pKd 3.1 to 4
With B1 the pKd was “below the threshold”.

What follows are binders tested against GIPC2, Q8TF65 (assay: holdup assay). Conditions: plain residues with an end cap or a label only (N-terminal biotin on a linker: ado-ado).
Chain of GIPC2, Q8TF65 (Q8TF65 112-203): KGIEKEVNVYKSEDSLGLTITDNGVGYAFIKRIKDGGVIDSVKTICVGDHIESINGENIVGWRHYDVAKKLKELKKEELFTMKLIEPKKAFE
Parameters: key: below the threshold = too weak to quantify, mostly under pKd 3.1 to 4
With B1 the pKd was “below the threshold”.

Each binder was assayed against GORASP2, Q9H8Y8 (assay: holdup assay). Conditions: plain residues with an end cap or a label only (N-terminal biotin on a linker: ado-ado).
Parameters: key: below the threshold = too weak to quantify, mostly under pKd 3.1 to 4
B1 was tested, and the pKd was “below the threshold”.

The binders below were run against GRASP, Q7Z6J2 (assay: holdup assay). Conditions: plain residues with an end cap or a label only (N-terminal biotin on a linker: ado-ado).
Chain of GRASP, Q7Z6J2 (Q7Z6J2 96-193): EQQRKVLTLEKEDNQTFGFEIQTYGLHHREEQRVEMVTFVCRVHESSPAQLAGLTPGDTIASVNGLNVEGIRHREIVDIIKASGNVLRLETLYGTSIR
Parameters: key: below the threshold = too weak to quantify, mostly under pKd 3.1 to 4
B1 was tested, and the pKd was “below the threshold”.

The binders below were run against GRID2IP_1, A4D2P6 (assay: holdup assay). Conditions: plain residues with an end cap or a label only (N-terminal biotin on a linker: ado-ado).
Chain of GRID2IP_1, A4D2P6 (A4D2P6 1-87): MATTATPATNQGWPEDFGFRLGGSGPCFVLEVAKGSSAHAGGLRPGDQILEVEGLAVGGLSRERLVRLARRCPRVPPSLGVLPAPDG
Parameters: key: below the threshold = too weak to quantify, mostly under pKd 3.1 to 4
With B1 the pKd was “below the threshold”.

The binders below were run against Inadl_1, Q8NI35 (assay: holdup assay). Conditions: plain residues with an end cap or a label only (N-terminal biotin on a linker: ado-ado).
Chain of Inadl_1, Q8NI35 (Q8NI35 113-229): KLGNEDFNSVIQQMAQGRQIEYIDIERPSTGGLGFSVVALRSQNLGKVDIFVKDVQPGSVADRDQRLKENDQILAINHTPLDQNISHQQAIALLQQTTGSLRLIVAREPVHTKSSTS
Parameters: key: below the threshold = too weak to quantify, mostly under pKd 3.1 to 4
In the case of B1, the pKd is reported as “below the threshold”.

Each binder was assayed against Inadl_10, Q8NI35 (assay: holdup assay). Conditions: plain residues with an end cap or a label only (N-terminal biotin on a linker: ado-ado).
Chain of Inadl_10, Q8NI35 (Q8NI35 1673-1763): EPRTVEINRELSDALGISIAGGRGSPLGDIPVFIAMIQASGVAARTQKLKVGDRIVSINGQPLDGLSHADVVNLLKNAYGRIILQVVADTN
Parameters: key: below the threshold = too weak to quantify, mostly under pKd 3.1 to 4
B1 was tested, and the pKd was “below the threshold”.

What follows are binders tested against Inadl_5, Q8NI35 (assay: holdup assay). Conditions: plain residues with an end cap or a label only (N-terminal biotin on a linker: ado-ado).
Chain of Inadl_5, Q8NI35 (Q8NI35 673-780): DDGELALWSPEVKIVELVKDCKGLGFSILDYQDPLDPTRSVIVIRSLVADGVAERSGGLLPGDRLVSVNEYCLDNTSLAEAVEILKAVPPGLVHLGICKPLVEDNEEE
Parameters: key: below the threshold = too weak to quantify, mostly under pKd 3.1 to 4
With B1 the pKd was “below the threshold”.

These binders were tested against Inadl_9, Q8NI35 (assay: holdup assay). Conditions: plain residues with an end cap or a label only (N-terminal biotin on a linker: ado-ado).
Chain of Inadl_9, Q8NI35 (Q8NI35 1530-1615): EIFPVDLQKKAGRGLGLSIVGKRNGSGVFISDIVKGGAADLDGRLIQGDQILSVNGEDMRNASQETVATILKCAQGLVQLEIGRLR
Parameters: key: below the threshold = too weak to quantify, mostly under pKd 3.1 to 4
With B1 the pKd was “below the threshold”.

These binders were tested against T4, LIN7A, O14910 (assay: holdup assay). Conditions: plain residues with an end cap or a label only (N-terminal biotin on a linker: ado-ado).
Parameters: key: below the threshold = too weak to quantify, mostly under pKd 3.1 to 4
In the case of B1, the pKd is reported as “below the threshold”.

Each binder was assayed against LNX1_1, Q8TBB1 (assay: holdup assay). Conditions: plain residues with an end cap or a label only (N-terminal biotin on a linker: ado-ado).
Chain of LNX1_1, Q8TBB1 (Q8TBB1 261-371): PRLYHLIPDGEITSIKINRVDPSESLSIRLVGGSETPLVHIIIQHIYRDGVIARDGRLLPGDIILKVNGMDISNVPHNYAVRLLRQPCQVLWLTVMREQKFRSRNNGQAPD
Parameters: key: below the threshold = too weak to quantify, mostly under pKd 3.1 to 4
B1 was tested, and the pKd was “below the threshold”.

The binders below were run against MAGI2_2, Q86UL8 (assay: holdup assay). Conditions: plain residues with an end cap or a label only (N-terminal biotin on a linker: ado-ado).
Chain of MAGI2_2, Q86UL8 (Q86UL8 410-522): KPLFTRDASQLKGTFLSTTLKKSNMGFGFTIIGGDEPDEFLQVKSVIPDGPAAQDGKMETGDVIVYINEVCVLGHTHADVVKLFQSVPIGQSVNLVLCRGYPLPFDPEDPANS
Parameters: key: below the threshold = too weak to quantify, mostly under pKd 3.1 to 4
For B1, the pKd was “below the threshold”.

Each binder was assayed against MAGI2_3, Q86UL8 (assay: holdup assay). Conditions: plain residues with an end cap or a label only (N-terminal biotin on a linker: ado-ado).
Chain of MAGI2_3, Q86UL8 (Q86UL8 600-682): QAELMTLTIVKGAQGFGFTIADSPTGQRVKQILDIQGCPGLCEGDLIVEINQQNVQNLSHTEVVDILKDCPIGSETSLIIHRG
Parameters: key: below the threshold = too weak to quantify, mostly under pKd 3.1 to 4
For B1, the pKd was “below the threshold”.

The binders below were run against MAGI2_6, Q86UL8 (assay: holdup assay). Conditions: plain residues with an end cap or a label only (N-terminal biotin on a linker: ado-ado).
Chain of MAGI2_6, Q86UL8 (Q86UL8 1141-1229): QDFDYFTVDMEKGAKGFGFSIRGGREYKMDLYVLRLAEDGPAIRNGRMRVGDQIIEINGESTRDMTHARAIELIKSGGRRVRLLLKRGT
Parameters: key: below the threshold = too weak to quantify, mostly under pKd 3.1 to 4
With B1 the pKd was “below the threshold”.

The binders below were run against MAST2, Q6P0Q8 (assay: holdup assay). Conditions: plain residues with an end cap or a label only (N-terminal biotin on a linker: ado-ado).
Chain of MAST2, Q6P0Q8 (Q6P0Q8 1099-1202): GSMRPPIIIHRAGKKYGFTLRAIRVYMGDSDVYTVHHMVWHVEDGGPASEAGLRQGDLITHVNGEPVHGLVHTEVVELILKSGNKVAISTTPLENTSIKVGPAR
Parameters: key: below the threshold = too weak to quantify, mostly under pKd 3.1 to 4
B1 was tested, and the pKd was 4.1.

Each binder was assayed against T5, MPDZ_12, O75970 (assay: holdup assay). Conditions: plain residues with an end cap or a label only (N-terminal biotin on a linker: ado-ado).
Parameters: key: below the threshold = too weak to quantify, mostly under pKd 3.1 to 4
In the case of B1, the pKd is reported as “below the threshold”.

The binders below were run against NHERF2_2, Q15599 (assay: holdup assay). Conditions: plain residues with an end cap or a label only (N-terminal biotin on a linker: ado-ado).
Chain of NHERF2_2, Q15599 (Q15599 142-238): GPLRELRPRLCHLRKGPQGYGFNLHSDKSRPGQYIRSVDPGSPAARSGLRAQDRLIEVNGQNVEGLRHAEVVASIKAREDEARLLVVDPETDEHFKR
Parameters: key: below the threshold = too weak to quantify, mostly under pKd 3.1 to 4
B1 was tested, and the pKd was “below the threshold”.

The binders below were run against NHERF4_4, Q86UT5 (assay: holdup assay). Conditions: plain residues with an end cap or a label only (N-terminal biotin on a linker: ado-ado).
Chain of NHERF4_4, Q86UT5 (Q86UT5 464-550): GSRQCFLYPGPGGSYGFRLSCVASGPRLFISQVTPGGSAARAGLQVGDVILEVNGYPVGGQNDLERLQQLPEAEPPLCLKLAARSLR
Parameters: key: below the threshold = too weak to quantify, mostly under pKd 3.1 to 4
B1 was tested, and the pKd was “below the threshold”.

What follows are binders tested against T6, PCLO, Q9Y6V0 (assay: holdup assay). Conditions: plain residues with an end cap or a label only (N-terminal biotin on a linker: ado-ado).
Parameters: key: below the threshold = too weak to quantify, mostly under pKd 3.1 to 4
B1 was tested, and the pKd was “below the threshold”.

Each binder was assayed against PDZRN4_1, Q6ZMN7 (assay: holdup assay). Conditions: plain residues with an end cap or a label only (N-terminal biotin on a linker: ado-ado).
Chain of PDZRN4_1, Q6ZMN7 (Q6ZMN7 213-318): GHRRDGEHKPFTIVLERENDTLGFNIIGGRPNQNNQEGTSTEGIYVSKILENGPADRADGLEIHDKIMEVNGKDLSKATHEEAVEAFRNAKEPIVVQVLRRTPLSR
Parameters: key: below the threshold = too weak to quantify, mostly under pKd 3.1 to 4
For B1, the pKd was “below the threshold”.

What follows are binders tested against T7, PTPN13_1, Q12923 (assay: holdup assay). Conditions: plain residues with an end cap or a label only (N-terminal biotin on a linker: ado-ado).
Parameters: key: below the threshold = too weak to quantify, mostly under pKd 3.1 to 4
In the case of B1, the pKd is reported as “below the threshold”.

Each binder was assayed against PTPN3, P26045 (assay: holdup assay). Conditions: plain residues with an end cap or a label only (N-terminal biotin on a linker: ado-ado).
Chain of PTPN3, P26045 (P26045 505-587): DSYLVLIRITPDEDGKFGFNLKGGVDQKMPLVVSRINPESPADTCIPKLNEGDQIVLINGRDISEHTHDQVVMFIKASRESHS
Parameters: key: below the threshold = too weak to quantify, mostly under pKd 3.1 to 4
B1 was tested, and the pKd was 3.87.

Each binder was assayed against T8, SHANK1, Q9Y566 (assay: holdup assay). Conditions: plain residues with an end cap or a label only (N-terminal biotin on a linker: ado-ado).
Parameters: key: below the threshold = too weak to quantify, mostly under pKd 3.1 to 4
For B1, the pKd was “below the threshold”.

The binders below were run against T9, TX1BP3, O14907 (assay: holdup assay). Conditions: plain residues with an end cap or a label only (N-terminal biotin on a linker: ado-ado).
Parameters: key: below the threshold = too weak to quantify, mostly under pKd 3.1 to 4
In the case of B1, the pKd is reported as “below the threshold”.
